# Measurements taken from PMC5052650.
# Target: ARTD2 N+WGR fragment (human)
# Test: SAXS; proteins without DNA; measured without chromatography at three different concentrations; MW from Porod volume divided by 1.7
# Chain of ARTD2 N+WGR fragment (domain or fragment) (Q9UGN5 99-206): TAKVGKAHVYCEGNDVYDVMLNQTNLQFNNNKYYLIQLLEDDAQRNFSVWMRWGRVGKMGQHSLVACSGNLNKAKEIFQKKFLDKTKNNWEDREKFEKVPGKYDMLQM
substance,measurement,value
ARTD2 N+WGR fragment (domain or fragment),stoichiometry N,2
